According to patent publication US20200317768A1 (published 2020):

T1: human FcγRIIaH extracellular domain with C-terminal His-tag (human, UniProt P12318 34-217)
T1 construct: Expressed in FreeStyle 293 cells and purified; also called human FcγRIIa (type H); FcgRIIaH; not shown: C-terminal His-tag
T1 sequence: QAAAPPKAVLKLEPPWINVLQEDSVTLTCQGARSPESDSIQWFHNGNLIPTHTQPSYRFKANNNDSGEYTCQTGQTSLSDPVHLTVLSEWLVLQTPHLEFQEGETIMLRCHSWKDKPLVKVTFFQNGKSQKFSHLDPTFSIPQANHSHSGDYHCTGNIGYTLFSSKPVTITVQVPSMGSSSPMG

T2: cynomolgus monkey FcγRIIa2 extracellular domain with C-terminal His-tag (cynomolgus monkey)
T2 construct: Expressed in FreeStyle 293 cells and purified; also called cyno FcγRIIa2; cynoFcgRIIa2; not shown: C-terminal His-tag
T2 chain: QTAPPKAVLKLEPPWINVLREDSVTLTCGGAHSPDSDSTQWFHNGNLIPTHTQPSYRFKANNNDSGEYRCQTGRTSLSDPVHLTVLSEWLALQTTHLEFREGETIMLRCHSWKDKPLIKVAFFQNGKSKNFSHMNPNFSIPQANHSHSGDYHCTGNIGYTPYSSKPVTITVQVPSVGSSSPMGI

T3: human FcγRIIb extracellular domain with C-terminal His-tag (human, UniProt P31994 43-217)
T3 construct: Expressed in FreeStyle 293 cells and purified; also called humanFcgRIIb; not shown: C-terminal His-tag
T3 sequence: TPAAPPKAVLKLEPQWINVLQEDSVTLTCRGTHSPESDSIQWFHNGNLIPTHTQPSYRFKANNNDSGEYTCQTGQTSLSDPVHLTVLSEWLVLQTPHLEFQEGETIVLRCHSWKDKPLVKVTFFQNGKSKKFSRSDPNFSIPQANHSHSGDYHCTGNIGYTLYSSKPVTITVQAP

T4: cynomolgus monkey FcγRIIb extracellular domain with C-terminal His-tag (cynomolgus monkey)
T4 construct: Expressed in FreeStyle 293 cells and purified; also called cyno FcγRIIb; cynoFcγRIIb; not shown: C-terminal His-tag
T4 chain: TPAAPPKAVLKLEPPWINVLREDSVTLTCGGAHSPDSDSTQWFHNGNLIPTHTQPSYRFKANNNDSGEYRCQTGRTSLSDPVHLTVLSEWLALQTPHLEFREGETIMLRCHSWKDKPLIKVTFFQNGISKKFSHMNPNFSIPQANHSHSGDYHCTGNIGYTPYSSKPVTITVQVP

T5: cynomolgus monkey FcγRIIa3 extracellular domain with C-terminal His-tag (cynomolgus monkey)
T5 construct: Expressed in FreeStyle 293 cells and purified; also called cyno FcγRIIa3; cynoFcgRIIa3; not shown: C-terminal His-tag
T5 chain: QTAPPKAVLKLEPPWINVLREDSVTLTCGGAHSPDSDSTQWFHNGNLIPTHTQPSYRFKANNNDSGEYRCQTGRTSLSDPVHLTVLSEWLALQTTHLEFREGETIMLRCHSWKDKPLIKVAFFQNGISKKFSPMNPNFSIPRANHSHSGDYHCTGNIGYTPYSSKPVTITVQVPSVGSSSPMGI

T6: cynomolgus monkey FcγRIIa1 extracellular domain with C-terminal His-tag (cynomolgus monkey)
T6 construct: Expressed in FreeStyle 293 cells and purified; also called cyno FcγRIIa1; cynoFcgRIIa1; not shown: C-terminal His-tag
T6 chain: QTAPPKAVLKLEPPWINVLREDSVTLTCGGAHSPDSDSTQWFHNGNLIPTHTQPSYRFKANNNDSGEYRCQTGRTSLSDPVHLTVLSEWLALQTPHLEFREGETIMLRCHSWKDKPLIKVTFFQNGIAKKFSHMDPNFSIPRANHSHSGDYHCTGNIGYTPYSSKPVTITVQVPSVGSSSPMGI


Columns and labels:
[1] = molecular target: T1, human FcγRIIaH extracellular domain …; assay: SPR (Biacore), antibody captured on chip, FcgR extracellular domain as analyte, 25 C
Protocol: (§1) The kinetic analysis of interactions between these antibodies and FcγR was carried out using BIACORE® T200 or BIACORE® 4000 (GE Healthcare). HBS-EP+ (GE Healthcare) was used as the running buffer, and the measurement temperature was set to 25° C. A chip produced by immobilizing Protein A. Protein A/G or mouse anti-human IgG kappa light chain (BD Biosciences) onto a Series S Sensor Chip CM4 or CM5 (GE Healthcare) by the amine-coupling method was used. […] After the measurement, the antibody captured on the chip was washed off by allowing reaction with 10 mM glycine-HCl, pH1.5 and 25 mM NaOH so that the chip was regenerated and used repeatedly. The sensorgrams obtained as measurement results were analyzed by the 1:1 Langmuir binding model using the BIACORE® Evaluation Software to calculate the binding rate constant ka (L/mol/s) and dissociation rate constant kd (l/s), and the dissociation constant KD (mol/L) was calculated from these values. […] Regarding such interactions, KD values were calculated using the following 1:1 binding model described in BIACORE® T100 Software Handbook BR1006-48 Edition AE.
(§2) The resultant variants were expressed using M103202L889-SK1 as light chain and their affinity to human and cynoFcγRs were evaluated (Table 20).

[2] = molecular target: T2, cynomolgus monkey FcγRIIa2 …; assay: as above
Protocol: as §1, §2

[3] = molecular target: T3, human FcγRIIb extracellular domain with …; assay: as above
Protocol: as §1, §2

[4] = molecular target: T7, human FcγRIIIaV extracellular domain with C-terminal His-tag (human, UniProt P08637 17-208); assay: as above
T7 construct: Expressed in FreeStyle 293 cells and purified; also called FcgRIIIaV; not shown: C-terminal His-tag
Protocol: as §1, §2

[5] = molecular target: T4, cynomolgus monkey FcγRIIb extracellular …; assay: as above
Protocol: as §1, §2

[6] = molecular target: T5, cynomolgus monkey FcγRIIa3 …; assay: as above
Protocol: as §1, §2

[7] = molecular target: T1, human FcγRIIaH extracellular domain …; assay: SPR (Biacore); KD of SG1 divided by KD of the variant for this FcgR;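 note: relative to parent M103205H795-SG1 carrying the SG1 human heavy chain constant region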
Protocol: as §1, §2

[8] = molecular target: T6, cynomolgus monkey FcγRIIa1 …; assay: as above
Protocol: as §1, §2

[9] = molecular target: T7, human FcγRIIIaV extracellular domain …; assay: as above
Protocol: as §1, §2

T7 sequence (P08637 17-208 F176V): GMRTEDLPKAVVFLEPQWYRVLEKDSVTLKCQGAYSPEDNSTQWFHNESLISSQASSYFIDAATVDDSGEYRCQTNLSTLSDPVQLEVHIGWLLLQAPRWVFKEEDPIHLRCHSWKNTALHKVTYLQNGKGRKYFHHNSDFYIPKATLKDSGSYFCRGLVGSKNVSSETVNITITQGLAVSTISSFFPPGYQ

Binder | Kd [1] [nM] | Kd [2] [nM] | Kd [3] [nM] | Kd [4] [nM] | Kd [5] [nM] | Kd [6] [nM] | KD fold (SG1 = 1) [7] [fold] | KD fold (SG1 = 1) [8] [fold] | KD fold (SG1 = 1) [9] [fold]
MS_M103205H795-SG1/M103202L889-SK1 (antibody, human IgG1, kappa, Anti-latent myostatin IgG; also called MS1032LO06-SG1) heavy: not shown light: DIVMTQSPATLSLSPGERATLSCTSSQSVYHANWLSWFQQKPGQPPKLLIYWASTLAYGVPSRFSGSGSGTDFTLTISSLQPEDAATYYCAGGYGGGRYAFGQGTKVEIKRTVAAPSVFIFPPSDEQLKSGTASVVCLLNNFYPREAKVQWKVDNALQSGNSQESVTEQDSKDSTYSLSSTLTLSKADYEKHKVYACEVTHQGLSSPVTKSFNRGEC | 690 | 5100 | 4600 | 810 | 1800 | 17000 | 1 | 1 | 1
M103205H795-MY052 / M103202L889-SK1 (antibody, human IgG1, kappa, Fc variant of M103205H795-SG1, expressed with M103202L889-SK1 as light chain; parent of the position 396 variants) heavy: QVTLKESGPVLVKPTETLTLTCTVSGIDLSHDDISWVRQAPGKGLEWVGIISYAGSTYYASWAKGRLTISKDTSKNQVVLTMTNMDPVDTATYYCARGVPAYSHGGDLWGQGTLVTVSSASTKGPSVFPLAPSSKSTSGGTAALGCLVKDYFPEPVTVSWNSGALTSGVHTFPAVLQSSGLYSLSSVVTVPSSSLGTQTYICNVNHKPSNTKVDKKVEPKSCDKTHTCPPCPAPELLNGPSVFLFPPKPKDTLMISRTPEVTCVVVDVSEEDPEVKFNWYVDGVEVHNAKTKPREEQYNSTYRVVSVLTVLHQDWLNGKEYKCKVSNKALPAPIEKTISKAKGQPREPQVYTLPPSREEMTKNQVSLTCLVKGFYPSDIAVEWESNGQPENNYKTTPMVLDSDGSFFLYSKLTVDKSRWQQGNVFSCSVMHEALHNHYTQKSLSLSP light: DIVMTQSPATLSLSPGERATLSCTSSQSVYHANWLSWFQQKPGQPPKLLIYWASTLAYGVPSRFSGSGSGTDFTLTISSLQPEDAATYYCAGGYGGGRYAFGQGTKVEIKRTVAAPSVFIFPPSDEQLKSGTASVVCLLNNFYPREAKVQWKVDNALQSGNSQESVTEQDSKDSTYSLSSTLTLSKADYEKHKVYACEVTHQGLSSPVTKSFNRGEC | 830 | 1500 | 720 | 1500 | 460 | 3900 | 0.8 | 2.3 | 0.54
M103205H795-MY169 / M103202L889-SK1 (antibody, human IgG1, kappa, Position 396 variant derived from MY052, expressed with M103202L889-SK1 as light chain) heavy: QVTLKESGPVLVKPTETLTLTCTVSGIDLSHDDISWVRQAPGKGLEWVGIISYAGSTYYASWAKGRLTISKDTSKNQVVLTMTNMDPVDTATYYCARGVPAYSHGGDLWGQGTLVTVSSASTKGPSVFPLAPSSKSTSGGTAALGCLVKDYFPEPVTVSWNSGALTSGVHTFPAVLQSSGLYSLSSVVTVPSSSLGTQTYICNVNHKPSNTKVDKKVEPKSCDKTHTCPPCPAPELLNGPSVFLFPPKPKDTLMISRTPEVTCVVVDVSEEDPEVKFNWYVDGVEVHNAKTKPREEQYNSTYRVVSVLTVLHQDWLNGKEYKCKVSNKALPAPIEKTISKAKGQPREPQVYTLPPSREEMTKNQVSLTCLVKGFYPSDIAVEWESNGQPENNYKTTPDVLDSDGSFFLYSKLTVDKSRWQQGNVFSCSVMHEALHNHYTQKSLSLSP light: DIVMTQSPATLSLSPGERATLSCTSSQSVYHANWLSWFQQKPGQPPKLLIYWASTLAYGVPSRFSGSGSGTDFTLTISSLQPEDAATYYCAGGYGGGRYAFGQGTKVEIKRTVAAPSVFIFPPSDEQLKSGTASVVCLLNNFYPREAKVQWKVDNALQSGNSQESVTEQDSKDSTYSLSSTLTLSKADYEKHKVYACEVTHQGLSSPVTKSFNRGEC | 1200 | 2300 | 1300 | 6200 | 1000 | 9900 | 0.6 | 1.4 | 0.13

Further binders by falling Kd [1], results first:

Kd [1] [nM] | Kd [2] [nM] | Kd [3] [nM] | Kd [4] [nM] | Kd [5] [nM] | Kd [6] [nM] | KD fold (SG1 = 1) [7] [fold] | KD fold (SG1 = 1) [8] [fold] | KD fold (SG1 = 1) [9] [fold] | Binder
1700 | 2400 | 1600 | 6300 | 1200 | 12000 | 0.4 | 1.4 | 0.13 | M103205H795-MY170 / M103202L889-SK1 (antibody, human IgG1, kappa, Position 396 variant derived from MY052, expressed with M103202L889-SK1 as light chain) heavy: QVTLKESGPVLVKPTETLTLTCTVSGIDLSHDDISWVRQAPGKGLEWVGIISYAGSTYYASWAKGRLTISKDTSKNQVVLTMTNMDPVDTATYYCARGVPAYSHGGDLWGQGTLVTVSSASTKGPSVFPLAPSSKSTSGGTAALGCLVKDYFPEPVTVSWNSGALTSGVHTFPAVLQSSGLYSLSSVVTVPSSSLGTQTYICNVNHKPSNTKVDKKVEPKSCDKTHTCPPCPAPELLNGPSVFLFPPKPKDTLMISRTPEVTCVVVDVSEEDPEVKFNWYVDGVEVHNAKTKPREEQYNSTYRVVSVLTVLHQDWLNGKEYKCKVSNKALPAPIEKTISKAKGQPREPQVYTLPPSREEMTKNQVSLTCLVKGFYPSDIAVEWESNGQPENNYKTTPEVLDSDGSFFLYSKLTVDKSRWQQGNVFSCSVMHEALHNHYTQKSLSLSP light: DIVMTQSPATLSLSPGERATLSCTSSQSVYHANWLSWFQQKPGQPPKLLIYWASTLAYGVPSRFSGSGSGTDFTLTISSLQPEDAATYYCAGGYGGGRYAFGQGTKVEIKRTVAAPSVFIFPPSDEQLKSGTASVVCLLNNFYPREAKVQWKVDNALQSGNSQESVTEQDSKDSTYSLSSTLTLSKADYEKHKVYACEVTHQGLSSPVTKSFNRGEC
1600 | 2500 | 1700 | 8100 | 1200 | 10000 | 0.4 | 1.5 | 0.1 | M103205H795-MY168 / M103202L889-SK1 (antibody, human IgG1, kappa, Position 396 variant derived from MY052, expressed with M103202L889-SK1 as light chain) heavy: QVTLKESGPVLVKPTETLTLTCTVSGIDLSHDDISWVRQAPGKGLEWVGIISYAGSTYYASWAKGRLTISKDTSKNQVVLTMTNMDPVDTATYYCARGVPAYSHGGDLWGQGTLVTVSSASTKGPSVFPLAPSSKSTSGGTAALGCLVKDYFPEPVTVSWNSGALTSGVHTFPAVLQSSGLYSLSSVVTVPSSSLGTQTYICNVNHKPSNTKVDKKVEPKSCDKTHTCPPCPAPELLNGPSVFLFPPKPKDTLMISRTPEVTCVVVDVSEEDPEVKFNWYVDGVEVHNAKTKPREEQYNSTYRVVSVLTVLHQDWLNGKEYKCKVSNKALPAPIEKTISKAKGQPREPQVYTLPPSREEMTKNQVSLTCLVKGFYPSDIAVEWESNGQPENNYKTTPAVLDSDGSFFLYSKLTVDKSRWQQGNVFSCSVMHEALHNHYTQKSLSLSP light: DIVMTQSPATLSLSPGERATLSCTSSQSVYHANWLSWFQQKPGQPPKLLIYWASTLAYGVPSRFSGSGSGTDFTLTISSLQPEDAATYYCAGGYGGGRYAFGQGTKVEIKRTVAAPSVFIFPPSDEQLKSGTASVVCLLNNFYPREAKVQWKVDNALQSGNSQESVTEQDSKDSTYSLSSTLTLSKADYEKHKVYACEVTHQGLSSPVTKSFNRGEC
